First the molecules themselves.
B1: mAb 1.169 (antibody, IgG1, V domains shown)
VH: QVQLQQSGPELVKPGASVKISCKASGYGFSSSWMNWVKQRPGKGLEWIGRIYPGDGETSYNGEFKGKATLTADKSSSTAYMQLSSLTSEDSAVYFCASYYEGGYWGQGTLVTVSA
VL: DIVMTQAAPSLPVTPGESVSISCRSSKSLLHSNGNTYLFWFLQRPGQSPHLLIYRMSNLASGVPDRFSGSGSGTAFTLRISRVEAEDVGVYYCMQHLEYPYTFGGGTKLEIKR
notes: also called A6
B2: mAb 1.36 (antibody, IgG1, V domains shown)
VH: QVQLQQSGPELVKPGASVKISCKASGYGFSNSWMNWVRQRPGKGLEWIGRIYPGDGETSYNGEFVGKATLTADKSSSTAYMHLSSLTSEDSAVYFCASYYEGGYWGQGTLVTVS
VL: B1 VL with L11V, F39Y, H50Q
notes: also called A5
B3: mAb 1.78 (antibody, IgG1, V domains shown)
VH: B1 VH with I20M, G28A, M34L, K38R, T58N, S59H, E63K, A79G, V111I
VL: DIVMTQAAPSIPVTPGESVSISCRSDKSLLHSNGNTYLFWFLQRPGQSPQLLIYRMSNLASGVPDRFSGSGSGTAFTLRISGVEAEDVGVYYCMQHLEYPYTFGGGTKLEIK
notes: also called A3
B4: mAb 1.75 (antibody, IgG2b, V domains shown)
VH: EVQLVESGGGLVQPKGSLKLSCAASGFSFNTYAMNWVRQAPGKGLEWIAHIRSKSNNFATYYADSVKDRFSISRDASENILFLQMNNLKTEDTAMYYCVRQGGDFPMDYWGQGTSVTVSS
VL: QIVLTQSPAIMSASPGEKVTISCSASSSVSYMYWYQQKPGSSPKPWIYRTSNLASGVPARFSGSGSGTSYSLTISNMEAEDAAAYYCQQYHSYPTTFGGGTKLEVK
notes: also called A2
B5: mAb 1.111 (antibody, IgG1, V domains shown)
VH: DVQLQESGPGLVKPSQSLSLTCTVTGYSITIDYTWNWIRQFPGNKLEWMGYITYSGSTDYNPSLKSRSSITRDTSMNQFFLQLNSVTTEDTATYYCARLGRRYALDYWGQGTSVTVSS
VL: DIQMTQSSSSFSVSLGDRVTITCKASEDIYIRLAWYQQKPGNAPRLLISAATSLETGIPSRFSGSGSGEDYTLTITSLQTEDVATYYCQQYWTTPWTFGGGTKLEIKR
notes: also called A4
B6: mAb 1.6 (antibody, IgG2b, V domains shown)
VH: B5 VH with I31S, D59S, S68N, M76K, A104T, L105M
VL: DIQMTQSSSSFSVSLGDRVTITCMASEDIYIRLAWYQQKPGNAPRLLISAATSLETGVPSRFSGSGSGKDYTLSITSLQTEDVGTYYCQQYWSSPWTFGGGTKLEIN
notes: An Alexa Fluor 647 conjugate was used for CD34+ cell staining; also called Ab 1.6.1; A1

Numbering of substitutions follows the chain as printed.

One test deals with T1, human c-Mpl (full length, on cells) (human, UniProt P40238 26-635).
T1 sequence: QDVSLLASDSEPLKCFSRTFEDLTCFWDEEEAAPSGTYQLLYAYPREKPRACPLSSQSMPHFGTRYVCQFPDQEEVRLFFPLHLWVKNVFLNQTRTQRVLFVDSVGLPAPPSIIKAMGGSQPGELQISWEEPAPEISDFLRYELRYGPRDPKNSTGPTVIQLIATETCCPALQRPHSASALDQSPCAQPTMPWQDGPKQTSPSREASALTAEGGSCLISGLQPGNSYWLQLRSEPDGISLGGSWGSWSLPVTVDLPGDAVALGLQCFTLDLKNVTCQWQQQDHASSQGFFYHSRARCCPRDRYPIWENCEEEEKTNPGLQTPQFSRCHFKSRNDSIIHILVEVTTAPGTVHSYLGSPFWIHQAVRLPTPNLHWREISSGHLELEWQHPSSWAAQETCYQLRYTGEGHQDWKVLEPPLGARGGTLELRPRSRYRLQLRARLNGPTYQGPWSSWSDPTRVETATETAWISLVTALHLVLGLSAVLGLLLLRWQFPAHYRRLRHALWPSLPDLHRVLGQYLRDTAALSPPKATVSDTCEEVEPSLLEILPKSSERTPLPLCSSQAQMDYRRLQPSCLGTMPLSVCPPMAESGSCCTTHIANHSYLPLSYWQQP
Briefly: cell-based or functional assay.
B1: the “IC50 (nM), inhibition of rhuTPO (26 pM)-driven proliferation of 32D-hu-c-Mpl cells (CellTiter-Glo)” value (shortened to “IC50 (nM), inhibition of rhuTPO”) was 5.32 nM.
For B2, the “IC50 (nM), inhibition of rhuTPO” value was 1.25 nM.
Regarding B3, the “IC50 (nM), inhibition of rhuTPO” value was determined as 0.23 nM.

The target of another test is T2, rhu-c-Mpl (AA1-490-6H) (human, UniProt P40238 26-490).
T2 construct: Entire 490 amino acid extracellular domain with six C-terminal histidines, expressed in CHO cells; also called recombinant human c-Mpl protein; soluble c-Mpl
T2 sequence: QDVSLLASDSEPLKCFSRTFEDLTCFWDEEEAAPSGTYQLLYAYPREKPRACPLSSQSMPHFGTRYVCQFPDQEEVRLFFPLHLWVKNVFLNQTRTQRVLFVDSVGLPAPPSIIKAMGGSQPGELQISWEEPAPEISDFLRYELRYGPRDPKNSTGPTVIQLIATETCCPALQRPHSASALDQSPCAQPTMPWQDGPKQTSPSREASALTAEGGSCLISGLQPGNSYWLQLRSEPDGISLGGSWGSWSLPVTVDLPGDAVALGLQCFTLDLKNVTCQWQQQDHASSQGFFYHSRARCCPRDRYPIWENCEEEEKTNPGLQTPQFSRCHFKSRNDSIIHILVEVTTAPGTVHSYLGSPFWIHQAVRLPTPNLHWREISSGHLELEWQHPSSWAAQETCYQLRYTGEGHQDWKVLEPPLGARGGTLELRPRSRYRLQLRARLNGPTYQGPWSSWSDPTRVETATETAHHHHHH
The test is described as follows: solution-equilibrium Biacore with soluble rhu-c-Mpl, KinExA Pro fit. As for the experimental part:
The affinities of these anti-c-Mpl mAbs to the soluble c-Mpl protein were determined in a solution-based Biacore analysis. Briefly, a fixed amount of rhu-c-Mpl was incubated with various concentrations of anti-c-Mpl mAbs at room temperature for ˜4 hours before being run over the same anti-c-Mpl mAbs immobilized at high density on a CM5 surface. In this assay the binding signal is proportional to the concentration of free rhu-c-Mpl at equilibrium with a given antibody concentration. The dissociation equilibrium constant (KD) was obtained from nonlinear regression of the competition curves using an n-curve one-site homogeneous binding model (KinExATM Pro software).
In general terms: In SPR one partner is held on a chip, and binding of the other changes the refractive index at the surface.
In the case of B4, the Kd – broadly, the free concentration of one partner at which half of the binding sites on the other are occupied at equilibrium, for simple one-to-one binding – worked out at 0.01 nM.
Consider B1, for which the affinity, expressed as Kd, was 0.48 nM.
In turn, B2 registered a dissociation constant Kd of 0.45 nM.
Still for that read-out and setting: in the case of B3 it was 0.072 nM; in that of B5, 0.036 nM; in that of B6, 0.036 nM.

The target of the next test is T1, human c-Mpl (full length, on cells). The test is described as follows: cell-based or functional assay. This is another data set of the same source.
As for B4, the “IC50 (nM), inhibition of rhuTPO” value was determined as 0.05 nM.
The same measure, in the same setting: in the case of B5 it was 0.12 nM; in that of B6, 0.03 nM.

The values are drawn from patent publication US20120269814A1 (Amgen, published 2012).
